# Measurements: paper PMC12400406 (Organic Letters, 2025)
# T1: CmnA-A2-CmnN (Saccharothrix mutabilis, UniProt A6YEH2)
# T1 construct: second adenylation domain of CmnA, with MbtH-like protein CmnN, recombinant; with MbtH-like protein CmnN
# T1 sequence (A6YEH2 1420-1895 limits assumed): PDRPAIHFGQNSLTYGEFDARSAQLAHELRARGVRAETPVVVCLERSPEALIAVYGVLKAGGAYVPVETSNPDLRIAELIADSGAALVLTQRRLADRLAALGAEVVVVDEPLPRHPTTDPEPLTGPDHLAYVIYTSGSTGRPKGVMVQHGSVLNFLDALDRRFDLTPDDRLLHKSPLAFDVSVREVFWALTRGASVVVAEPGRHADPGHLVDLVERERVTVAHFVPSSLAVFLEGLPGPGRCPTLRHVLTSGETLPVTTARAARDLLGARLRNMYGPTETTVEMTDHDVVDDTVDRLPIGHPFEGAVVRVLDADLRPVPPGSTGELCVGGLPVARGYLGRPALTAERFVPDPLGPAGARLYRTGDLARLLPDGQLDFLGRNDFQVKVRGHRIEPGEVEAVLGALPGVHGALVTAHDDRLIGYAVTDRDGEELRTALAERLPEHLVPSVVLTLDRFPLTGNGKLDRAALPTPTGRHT
# T1 sequence (A6YEI5 1-62 partner): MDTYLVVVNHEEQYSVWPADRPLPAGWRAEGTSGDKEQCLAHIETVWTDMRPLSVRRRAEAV
# T2: CmnA-A1–CmnN (Saccharothrix mutabilis, UniProt A6YEH2)
# T2 construct: first adenylation domain (module 1) of CmnA, co-expressed with MbtH-like protein CmnN in E. coli; with MbtH-like protein CmnN
# T2 sequence (A6YEH2 450-890 limits assumed): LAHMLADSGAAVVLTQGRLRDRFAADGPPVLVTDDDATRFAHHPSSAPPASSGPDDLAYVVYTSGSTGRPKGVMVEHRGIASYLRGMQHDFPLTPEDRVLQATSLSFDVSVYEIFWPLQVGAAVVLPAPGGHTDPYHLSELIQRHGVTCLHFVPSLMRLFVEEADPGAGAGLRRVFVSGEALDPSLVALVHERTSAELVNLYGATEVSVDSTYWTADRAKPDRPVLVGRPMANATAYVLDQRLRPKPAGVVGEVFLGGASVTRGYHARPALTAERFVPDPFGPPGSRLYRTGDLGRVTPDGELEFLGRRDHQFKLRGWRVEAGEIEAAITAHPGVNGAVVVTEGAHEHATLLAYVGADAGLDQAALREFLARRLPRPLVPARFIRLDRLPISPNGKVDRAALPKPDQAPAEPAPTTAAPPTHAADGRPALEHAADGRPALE
# T2 sequence (A6YEI5 1-62 partner): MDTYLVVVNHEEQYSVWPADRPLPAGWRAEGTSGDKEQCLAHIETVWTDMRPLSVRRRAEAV
# Tests used:
# CmnA-A2-CmnN = target: T1, CmnA-A2-CmnN; assay: enzyme activity assay (amino acid activation); assay type: biochemical
# CmnA-A1–CmnN = target: T2, CmnA-A1–CmnN; assay: in vitro loading onto CmnI-T, intact protein Q-TOF MS; adenylation activity assay; assay type: biochemical; details: ATP, Mg2+; holo-CmnI-T as acceptor
# CmnA-A1–CmnN complex = CmnA-A1–CmnN complex (Saccharothrix mutabilis subsp. capreolus, UniProt A6YEI5 1-62, An added initiator Met precedes His364 and is left out. The His-tag on CmnN is thrombin-cleaved. A6YEI5 is taken as CmnN because it is MbtH-like.); assay: BLI; biolayer interferometry; which partner was immobilised and the conditions are in the Supporting Information (not shown); details: both partners purified
# CmnA-A2-CmnN complex = CmnA-A2-CmnN complex (Saccharothrix mutabilis subsp. capreolus, UniProt A6YEI5 1-62, The printed limits Leu1832-Gly1896 give only 65 residues, which does not fit the stated 55.5 kDa. They are read as a digit transposition of Leu1382-Gly1896 (515 residues). An added initiator Met is le); assay: as above; details: both partners purified
molecule,measurement,setting,value
N[C@@H](CO)C(=O)O [L-Ser],enzyme activity assay (amino acid activation),CmnA-A2-CmnN,CmnA-A2 is capable of activating both L-Ser and L-Ala
C[C@H](N)C(=O)O [L-Ala],enzyme activity assay (amino acid activation),CmnA-A2-CmnN,CmnA-A2 is capable of activating both L-Ser and L-Ala
NC[C@H](N)C(=O)O [L-Dap],"in vitro loading onto CmnI-T, intact protein Q-TOF MS; adenylation activity assa",CmnA-A1–CmnN,CmnA-A1 specifically recognizes and activates the nonproteinogenic amino acid L-Dap
"CmnI (enzyme, Saccharothrix mutabilis subsp. capreolus, UniProt A6YEI0 1-548, looked up, CmnI, A domain-less NRPS module 3 (T-C didomain) of capreomycin biosynthesis, Saccharothrix mutabilis subsp. capreolus; calculated molecular weight of the apo-form construct 61 484.72 Da; also called A domain-less NRPS module CmnI; source: purified) MTTETPATTGAPATTGAPAPPGRAEIVAAVLPVFAEVLDAPDLTPDSDFFVHGGNSLLAIRVAGRVGRRLGRQVPPAGVLKHPTPDLLAAHLEEEFRGGGAPPIPAPRAGAEADRRPSTAQERVWLLHQLDPDRLDHLVTVALDVAGTVDPAAFTAAWTAVVRRHEALRSRFVKADDDRVAVVVDAEAAPEISVLDLARFPAPVRDRLAEERVRLLRTTPIRLDTGPLARFALLRLADRRYRIELAVHHIVCDGWSLDTLLADFLDAYGRALAGRSPALPPPAVGFADYVAWERDVESSRWPDMAVRLARRFADRPADLPLPVDPVDVPAHEDGDDVTVHAPPGLAAAVERARTSFGHTALTFHLTALGVLLARITGVDDLVVAVPVAGRAQTEHEDLVGLFVNTALARVRLGGTSDVRVLLERNRDEVDELVDCQTFPFDRLVDLLGARRAGTRVPLARVSLAVQNFDDPGTPAPELGFTWQFRDPPERQSKFDLAFTVSDTDGLRLTVTYRPSLFRRATVAAWAGQYLVALEHVVRGVADPEGSAR",Kd,CmnA-A1–CmnN complex,1.85 µM
same,koff,CmnA-A1–CmnN complex,0.000477 s⁻¹
same,kon,CmnA-A1–CmnN complex,258 M⁻¹ s⁻¹
same,Kd,CmnA-A2-CmnN complex,4.93 µM
same,koff,CmnA-A2-CmnN complex,0.000728 s⁻¹
same,kon,CmnA-A2-CmnN complex,148 M⁻¹ s⁻¹
